Test results from the nanobody polyreactivity screen of Harvey et al. (2022).

Test: yeast display, Sf9 membrane polyspecificity reagent, FACS + sequencing; frameworks hold sequencing errors
How it was run: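 In a synthetic yeast display library (Saccharomyces cerevisiae BJ5465), nanobody expression was induced with galactose for 36–48 hours. FACS gates were set low and high (top ~1%) using anti-HA fluorescence for expression and streptavidin fluorescence for binding of the Sf9 membrane reagent. Each polyreactivity label is drawn from the gate of origin.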

| Sequence | polyreactivity (PSR sort gate) |
| --- | --- |
| QVQLVESGGGLVQAGGSLRLSCAASGFTFYHYAMGWSRQAPGKESELVATISKRGGSTYYADSVKGRFTISRDNAKNTVYLQMNSLKPQDTAVFYCAAKIYWSSLKMDYWGQGTQVTVSS | high polyreactivity |
| QVQLVESGGGLVQAGGSLRLSCAASGFTFYIYAMGWYRQAPGKERELVAAISSGGGRTYYADSVKVRFTISRDNAKNTVYLQMTSLKPEDTAVYYCAARGRAFSYKNYGSDYWGQVTQVTVSS | high polyreactivity |
| QVQLVESGGGLVQAGGSLRLSCAASGFTFYKKTMGWYRQAPGKERELVAAISSSGSSTYYADAVKGRVTISRDNAKNTVYLQMNSLKPEDSAVEYCAAGRFAYHDDYWGQGTQVTVSS | high polyreactivity |
| QVQLVESGGGLVQAGGSLRLSCAASGFTFYKNAMGWYRQAPGKERELVARITGRGGSTYYADSVKGRFTISRDNAKNTVYLQMNSLKPEDTAVYYCAVDGLVWRNRGFDYWGQGTQVTVSS | high polyreactivity |
| QVQLVESGGGLVQAGGSLRLSCAASGFTFYKYAMGCYRQPPGKERELVAAITGRGGSTYYADSVKGRFTISRDNAKNTVYLQMNILKPEDTAVYYCAARTPSYEMDYWGQGTQVTVSS | high polyreactivity |
| QVQLVESGGGLVQAGGSLRLSCAASGFTFYKYAMGWYRQAPGKERELVAAISYRGGRTYYADSVKGRFTISRDNAKNTVYLQMNSLKPEDTAVYYCAARGYVWNIGRYYWGQGTEVTVSS | high polyreactivity |
| QVQLVESGGGLVQAGGSLRLSCAASGFTFYKYTMGWYRQAPGKERELVAAIRSSGGRTYYADSVKGRFTISRDNAKNTVYLQMNSLKPEDTAVYYCNAVVDRLIFWQFDYWGQGTQVTVSS | high polyreactivity |
| QVQLVESGGGLVQAGGSLRLSCAASGFTFYLNAMGWYRQAPGKERELVAAITGSGDDTYYADSVKGRFTISRDNAKNTVYLQMNSLKPEDTAVYYCAADVSYWYDYWGQGTQVTVSS | high polyreactivity |
| QVQLVESGGGLVQAGGSLRLSCAASGFTFYNNAMGWYRPAPGKERELVAVITSNGGRTYYADSVKGRFTISRDNAKNTVYLQMNSVKPEDTAVYYCAKDYKALYLYHYRISGGDVDYWGQGTQVTVSS | low polyreactivity |
| QVQLVESGGGLVQAGGSLRLSCAASGFTFYNYAMGWYRQAPGKERELVAAISWSGGSTHYADSVKGRFTISRDNAKNTVYLQMNSLKPEDTAVYYCAKFGVLGYYTYYYWGQGTQVTVSS | low polyreactivity |
| QVQLVESGGGLVQAGGSLRLSCAASGFTFYNYAMGWYRQAPGKERELVAAITSSGTSTYYADSVKGRFTISRDNAKNTVYLQMNSLKPEDTAVYYCNAVSSYSYSYDYWGQGTQVTVSS | low polyreactivity |
| QVQLVESGGGLVQAGGSLRLSCAASGFTFYQYAMGWYRQAPGKERELVAAISSGGSTYYADSVKGRFTISRDNAKNTVYLQMNSLKPEDTAVYYCAARFYRPGVKQYGYWGQGTQVTVSS | high polyreactivity |
| QVQLVESGGGLVQAGGSLRLSCAASGFTFYQYAMGWYRQAPGKERELVAAITWNGGSTYYADSVKGRFTISRDNAKNTVYLQMNSLKPEDTAVYYCAAESPSKFDYDYWGQGTQVTVSS | high polyreactivity |
| QVQLVESGGGLVQAGGSLRLSCAASGFTFYRNAMGWYRQAPGKERELVAAISSRGGSTYYADSVKGRFTISRDNAKNTVYLQLNSMKPEDNAVYYCAAYGNYNEYDYGGQGTQVTVSS | high polyreactivity |
| QVQLVESGGGLVQAGGSLRLSCAASGFTFYRNAMGWYRQAPGKERELVAAISSRGGSTYYADSVKGRFTISRDNAKNTVYLQMNSLKPEDTAVYYCAAYGNYNEYDYWGQGTQVTVSS | high polyreactivity |
| QVQLVESGGGLVQAGGSLRLSCAASGFTFYRNAMGWYRQAPGKERELVARISRRGGITSYADSVKGRFTISRDNAKNTVYLQMNSLKTEDTAVYYCKAEKRGQSYRFDYWGQGTQVTVSS | high polyreactivity |
| QVQLVESGGGLVQAGGSLRLSCAASGFTFYRNTMGWYRQAPGKERELVAAISTRDGSTYYADSVKGRFTISRDNAKYTVYLPMNSLKPEDTAVYYCAVLTYRGRFEYWGQGTQVTVSS | high polyreactivity |
